Results on one substance are retold here after publication PMC5694352.

Experiment in all cases: BLI
Test [1] deals with GlcNAc-IgG3 Fc (human IgG3 Fc with a single GlcNAc at N297) (human).
Test [2] deals with High mannose (Man8-Man12) glycoform of human IgG3 Fc (human).
Test [3] addresses Man5-IgG3 Fc (human IgG3 Fc with the GlcNAc2Man5 glycoform) (human).

A word on the Kd: it is the free concentration of one partner at which half of the binding sites on the other are occupied at equilibrium, for simple one-to-one binding. Lower therefore signals tighter binding. The term koff denotes a measure of how fast the partners let go of each other. Read a low koff as slow dissociation. One may read the kon as the rate constant with which the complex forms. “Fcγ receptor IIIA, high affinity polymorph (V158)”: the Kd turned out to be 506 nM in test [1], 41.4 nM in test [2] and 46.5 nM in test [3]. Besides, the koff in test [1] stood at 0.0858 s⁻¹; in test [2], 0.0065 s⁻¹. Moreover, the kon worked out at 170000 M⁻¹ s⁻¹ in test [1] and 160000 M⁻¹ s⁻¹ in test [2].
